Measurements: article PMC8595303, “Dramatic activation of an antibody by a single amino acid change in framework” (Scientific Reports, 2021)

T1: mature form of human TGFβ2 (made from LAP-TGFβ2 in CHO, for crystallization) (Homo sapiens)
T1 construct: Transforming Growth Factor-beta 2, human, mature form separated from LAP-TGFβ2; also called TGFb2; TGFβ2 dimer
T1 chain: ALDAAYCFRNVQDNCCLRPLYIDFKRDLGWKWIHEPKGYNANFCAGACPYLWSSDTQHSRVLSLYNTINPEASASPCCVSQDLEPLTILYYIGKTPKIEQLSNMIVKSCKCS


Experiments:
[1] = biological target: T2, human mature TGFβ1 (Homo sapiens, UniProt P01137); assay: cell-based or functional assay
T2 sequence (P01137 279-390): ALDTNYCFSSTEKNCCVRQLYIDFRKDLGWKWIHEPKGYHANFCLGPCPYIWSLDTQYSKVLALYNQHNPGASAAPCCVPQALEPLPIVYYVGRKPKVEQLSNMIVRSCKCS

[2] = biological target: T3, human mature TGFβ2 (PeproTech) (Homo sapiens, UniProt P61812); assay: cell-based or functional assay
[3] = biological target: T4, human mature TGFβ3 (Homo sapiens, UniProt P10600); assay: cell-based or functional assay
T4 sequence (P10600 301-412): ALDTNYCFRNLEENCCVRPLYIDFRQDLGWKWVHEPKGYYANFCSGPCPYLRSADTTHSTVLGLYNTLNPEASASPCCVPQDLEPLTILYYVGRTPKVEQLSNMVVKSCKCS

[4] = biological target: T2, human mature TGFβ1; assay: SPR; Biacore T200; antibody captured on a Protein A sensor chip (about 90 RU); mature TGFβ isoform injected, five-fold dilutions 0.008 nM to 5 nM; HBS-EP pH 7.4, 150 mM NaCl; 37 °C; 100 μl/min; 3 min association, 60 min dissociation; one-to-one Langmuir model, global fit; conditions: both partners purified
[5] = biological target: T3, human mature TGFβ2 (PeproTech); assay: as above; conditions: both partners purified
[6] = biological target: T4, human mature TGFβ3; assay: as above; conditions: both partners purified
[7] = biological target: T1, mature form of human TGFβ2 (made from …); assay: crystal structure; TGFβ2 and h4A11.v2 Fab mixed at 1:1 molar ratio, complex purified on Superdex-200 (25 mM Tris-HCl pH 7.5, 200 mM NaCl); crystals by vapor diffusion at 19 °C, 15% PEG 4000, 0.1 M Na Cacodylate pH 6.0; 2.9 Å; conditions: both partners purified

Binder | TGFβ inhibition by HEK-Blue cells (IC50: nM), TGFb1 [1] [nM] | TGFβ inhibition by HEK-Blue cells (IC50: nM), TGFb2; Blocking: Incomplete [2] [nM] | TGFβ inhibition by HEK-Blue cells (IC50: nM), TGFb3; Blocking: Incomplete [3] [nM] | Kd [4] [pM] | binding result [4] | Kd [5] [pM] | Kd [6] [pM] | TGFβ inhibition by HEK-Blue cells (IC50: nM), TGFb2; Blocking: Complete [2] [nM] | TGFβ inhibition by HEK-Blue cells (IC50: nM), TGFb3; Blocking: Complete [3] [nM] | binding result [7]
humanized 4A11 variant 5 (antibody, V domains shown, as the VH of m7 (h4A11.v2): rbt4A11 CDRs and rabbit Vernier residues grafted on human germline IGHV3-48*01; as the VL of m12 (h4A11.v7): rbt4A11 CDRs and rabbit Vernier residues grafted on human germline IGKV3-20*01; human IgG1; also called h4A11.v5; v5; source: Expi293F, transient, purified (Protein A, SEC)) VH: EQQLVESGGGLVQPGGSLRLSCAVSGFSLSSYTVNWVRQAPGKGLEWIGYISYGGSAYYASWANGRFTISKDSAKNSVYLQMNSLRAEDTAVYFCARHMQVGGAPTGSMAAFDPWGPGTLVTVSS VL: EAVLTQSPGTLSLSPGERATLSCQSSQSVYNNNYLSWFQQKPGQPPRLLIYGASTLTSGVPDRFSGSGSGTDFTLTISRLEPEDFAVYYCAGGYSGSSDKYAFGGGTKVEIK | > 667 | > 667 | > 667 | > 5000 | no binding (tested: 5 nM) | 12.1 | 13.9 | – | – | –
humanized 4A11 variant 1 (antibody, V domains shown, as the VH of m7 (h4A11.v2): rbt4A11 CDRs and rabbit Vernier residues grafted on human germline IGHV3-48*01; rbt4A11 CDRs and rabbit Vernier residues (VL positions 2, 4, 36, 43, 58) grafted on human germline IGKV4-1*01; human IgG1; also called h4A11.v1; v1; source: Expi293F, transient, purified (Protein A, SEC)) VH: EQQLVESGGGLVQPGGSLRLSCAVSGFSLSSYTVNWVRQAPGKGLEWIGYISYGGSAYYASWANGRFTISKDSAKNSVYLQMNSLRAEDTAVYFCARHMQVGGAPTGSMAAFDPWGPGTLVTVSS VL: DAVLTQSPDSLAVSLGERATINCQSSQSVYNNNYLSWFQQKPGQPPKLLIYGASTLTSGVPDRFSGSGSGTDFTLTISSLQAEDVAVYYCAGGYSGSSDKYAFGGGTKVEIK | > 667 | > 667 | > 667 | > 5000 | no binding (tested: 5 nM) | 4.6 | 14.4 | – | – | –
humanized 4A11 variant 8 (antibody, V domains shown, as the VH of m12 (h4A11.v7): rbt4A11 CDRs and rabbit Vernier residues grafted on human germline IGHV4-59*06; as the VL of m11 (h4A11.v6): rbt4A11 CDRs and rabbit Vernier residues grafted on human germline IGKV2-24*01; human IgG1; also called h4A11.v8; v8; source: Expi293F, transient, purified (Protein A, SEC)) VH: EQQLQESGPGLVKPSETLSLTCTVTGFSLSSYTVNWVRQPAGKGLEWIGYISYGGSAYYASWANGRFTISKDSSKNQVSLKLSSVTAADTAVYFCARHMQVGGAPTGSMAAFDPWGPGTLVTVSS VL: DAVLTQTPLSSPVTLGQPASISCQSSQSVYNNNYLSWFQQRPGQPPRLLIYGASTLTSGVPDRFSGSGAGTDFTLKISRVEAEDVGVYYCAGGYSGSSDKYAFGGGTKVEIK | > 667 | – | – | > 5000 | no binding (tested: 5 nM) | 8.2 | 14.1 | 4.8 | 0.7 | –

Second part, the binder after the results:

TGFβ inhibition by HEK-Blue cells (IC50: nM), TGFb1 [1] [nM] | TGFβ inhibition by HEK-Blue cells (IC50: nM), TGFb2; Blocking: Incomplete [2] [nM] | TGFβ inhibition by HEK-Blue cells (IC50: nM), TGFb3; Blocking: Incomplete [3] [nM] | Kd [4] [pM] | binding result [4] | Kd [5] [pM] | Kd [6] [pM] | TGFβ inhibition by HEK-Blue cells (IC50: nM), TGFb2; Blocking: Complete [2] [nM] | TGFβ inhibition by HEK-Blue cells (IC50: nM), TGFb3; Blocking: Complete [3] [nM] | binding result [7] | Binder
> 667 | > 667 | > 667 | > 5000 | no binding (tested: 5 nM) | 1.4 | 13.3 | – | – | – | humanized 4A11 variant 2 (antibody, V domains shown, rbt4A11 CDRs (Kabat and Chothia) and rabbit Vernier residues (VH positions 2, 24, 37, 48, 49, 67, 71, 78, 91, 105) grafted on human germline IGHV3-48*01; has R19, Y79, Q81 (Kabat numbering); rbt4A11 CDRs and rabbit Vernier residues (VL positions 2, 4, 36, 43, 58) grafted on human germline IGKV1D-39*01; human IgG1; also called h4A11.v2; v2; source: Expi293F, transient, purified (Protein A, SEC)) VH: EQQLVESGGGLVQPGGSLRLSCAVSGFSLSSYTVNWVRQAPGKGLEWIGYISYGGSAYYASWANGRFTISKDSAKNSVYLQMNSLRAEDTAVYFCARHMQVGGAPTGSMAAFDPWGPGTLVTVSS VL: DAQLTQSPSSLSASVGDRVTITCQSSQSVYNNNYLSWFQQKPGKPPKLLIYGASTLTSGVPSRFSGSGSGTDFTLTISSLQPEDFATYYCAGGYSGSSDKYAFGGGTKVEIK
> 667 | – | – | > 5000 | no binding (tested: 5 nM) | 6.3 | 9.7 | 0.9 | 0.2 | – | humanized 4A11 variant 7 (antibody, V domains shown, rbt4A11 CDRs (Kabat and Chothia) and rabbit Vernier residues (VH positions 2, 24, 37, 48, 49, 67, 71, 78, 91, 105) grafted on human germline IGHV4-59*06; has S19, S79, K81 (Kabat numbering); rbt4A11 CDRs and rabbit Vernier residues (VL positions 2, 4, 36, 43, 58) grafted on human germline IGKV3-20*01; human IgG1; also called h4A11.v7; v7; source: Expi293F, transient, purified (Protein A, SEC)) VH: EQQLQESGPGLVKPSETLSLTCTVTGFSLSSYTVNWVRQPAGKGLEWIGYISYGGSAYYASWANGRFTISKDSSKNQVSLKLSSVTAADTAVYFCARHMQVGGAPTGSMAAFDPWGPGTLVTVSS VL: EAVLTQSPGTLSLSPGERATLSCQSSQSVYNNNYLSWFQQKPGQPPRLLIYGASTLTSGVPDRFSGSGSGTDFTLTISRLEPEDFAVYYCAGGYSGSSDKYAFGGGTKVEIK
– | – | – | – | – | – | – | – | – | binds | Fab fragment of h4A11.v2 (Fab, V domains shown, Fab heavy chain of h4A11.v2; its VH as the VH of m7; Fab light chain of h4A11.v2; its VL as the VL of m7; also called h4A11.v2-Fab; h4A11.v2 Fab; source: E. coli, purified (Protein G, SP-sepharose)) VH: EQQLVESGGGLVQPGGSLRLSCAVSGFSLSSYTVNWVRQAPGKGLEWIGYISYGGSAYYASWANGRFTISKDSAKNSVYLQMNSLRAEDTAVYFCARHMQVGGAPTGSMAAFDPWGPGTLVTVSS VL: DAQLTQSPSSLSASVGDRVTITCQSSQSVYNNNYLSWFQQKPGKPPKLLIYGASTLTSGVPSRFSGSGSGTDFTLTISSLQPEDFATYYCAGGYSGSSDKYAFGGGTKVEIK
> 667 | > 667 | > 667 | > 5000 | no binding (tested: 5 nM) | 8.4 | 12.5 | – | – | – | humanized 4A11 variant 6 (antibody, V domains shown, as the VH of m7 (h4A11.v2): rbt4A11 CDRs and rabbit Vernier residues grafted on human germline IGHV3-48*01; rbt4A11 CDRs and rabbit Vernier residues (VL positions 2, 4, 36, 43, 58) grafted on human germline IGKV2-24*01; human IgG1; also called h4A11.v6; v6; source: Expi293F, transient, purified (Protein A, SEC)) VH: EQQLVESGGGLVQPGGSLRLSCAVSGFSLSSYTVNWVRQAPGKGLEWIGYISYGGSAYYASWANGRFTISKDSAKNSVYLQMNSLRAEDTAVYFCARHMQVGGAPTGSMAAFDPWGPGTLVTVSS VL: DAVLTQTPLSSPVTLGQPASISCQSSQSVYNNNYLSWFQQRPGQPPRLLIYGASTLTSGVPDRFSGSGAGTDFTLKISRVEAEDVGVYYCAGGYSGSSDKYAFGGGTKVEIK
